B1: TGF-beta-activated kinase 1 and MAP3K7-binding protein 3, residues 12 to 50; numbered along this chain, Q8N5C8 (parent)
chain: VLHDLRQRFPEIPEGVVSQCMLQNNNNLEACCRALSQES

Variants of: B1
Assay: abundance fitness (aPCA) (normalised: wild type 0, dead -1); higher = more abundant; growth selection in yeast, the domain comes from the species named
Conditions: Homo sapiens

Abundance fitness: each site, then its substitutions
D4: S -0.118; A 0.013; G -0.676; W 0.017; F 0.164; M -0.039; P -0.838; L 0.116; R -0.112; C -0.053; V 0.127; Y -0.054; N -0.075; K 0.109; E 0.248; Q 0.167; T 0.02
V16: P -0.927; S -0.58; N -0.552; D -0.264; Y 0.122; Q -0.155; M -0.073; H -0.372; C -0.638; F -0.71; E -0.105; R 0.032; W -0.683; A -0.297; G -0.711; K -0.114; L -0.228; T -0.16
C20: P -0.51; H -0.576; W -0.37; F -0.096; A 0.173; T 0.063; E -0.082; I 0.109; Y 0.007; M 0.028; Q -0.175; L -0.06; G -0.26; D 0.048; S -0.103; R -0.405
E11: Y -0.324; H -0.11; Q -0.166; D 0.111; P -0.764; L -0.416; F -0.479; S -0.189; N -0.115; G -0.13; M -0.213; A -0.511; W -0.126; V -0.726; R -0.444; K -0.535; T -0.214
P13: T -0.767; S -0.42; R -0.782; C -0.766; I -0.452; V -0.774; G -0.666; Y -0.926; D -0.22; A -0.513; M -0.517; Q -0.62; H -0.694; W -0.771; K -0.51
R8: E -0.469; T -0.877; Q -0.73; C -0.987; M 0.071; D -0.722; K 0.054; H -0.907; G -0.944; L -0.168; W -0.975; I -0.403; P -1.08; A -0.544
I12: A -0.533; H -0.209; Q -0.43; G -0.981; W -0.737; L -0.094; C -0.467; M -0.12; E -0.619; T -0.276; R -0.788; K -0.577; S -0.825; V -0.042; D -1.04
L22: G -0.266; S -0.045; D -0.06; A 0.173; M 0.041; K 0.264; C -0.377; F -0.188; R 0.152; E 0.164; Q 0.057; H 0.023
Q19: V -0.273; N -0.019; K 0.139; M -0.004; L -0.1; I 0.384; W -0.135; C -0.114; R 0.135; A 0.186; H -0.175; S -0.039; P -0.547; E 0.128; Y -0.345; T -0.077
M21: V -0.349; L -0.015; E -0.695; Q -0.937; D -0.691; P -0.68; W -0.732; S -0.718; Y -0.189; H -0.82; F -0.487; R -0.872; T -1.17; G -0.811; A -0.347
H3: I -0.096; F -0.342; P -0.483; V -0.331; R 0.088; E 0.201; Y -0.391; C -0.191; K 0.09; D -0.066; Q 0.266; M -0.023; N -0.14; T -0.019; S 0.066; G -0.078
Q7: F -0.634; N -0.225; W -1.08; C -0.658; R 0.103; K 0.003; M 0.064; V -0.135; D -0.083; S 0.026; I -0.077; P -1.02; G -0.413; T -0.089; E 0.072
S18: G -0.399; K 0.278; F -0.17; E 0.191; M 0.222; V 0.218; H 0.177; Y -0.196; I -0.035; C -0.336; L 0.23; P -0.939; D -0.434; T 0.136; R 0.345; A 0.13; Q 0.268
L2: Q -0.276; W -0.134; A -0.187; N -0.058; P -0.246; R -0.464; H 0.077; S -0.221; F 0.211; E -0.588; T -0.194; G -0.583; V -0.531; I -0.049
P10: T -0.906; R -0.96; W -0.962; Q -0.956; M -0.806; D -0.672; E -0.758; A -0.943; V -0.921; L -1.16; G -0.78; S -0.595; K -1.07
L5: V -0.896; W -0.885; Q -0.589; D -0.191; S -0.914; K -0.532; I 0.286; E -0.362; R -0.722; M -0.493; H -0.4; A -0.905
F9: D -0.616; L -0.935; T -0.798; R -0.751; K -0.544; E -0.682; M -0.428; N -0.559; I -0.784; S -0.597; G -0.818; V -0.865; C -0.65; Y -0.04; W -0.964
E14: C -0.613; L -0.142; N -0.738; D -0.308; F -1.02; R -0.668; G -0.829; S -0.416; Y -0.256; M -0.377; I -0.246; V -0.24; T -0.549; H 0.117; Q -0.255; K -0.831; P -0.143
V17: Y -0.811; T -1.07; G -0.795; M -0.395; N -0.468; K -0.955; L 0.084; Q -0.81; H -0.7; D -0.624; I 0.266; A -0.647; C -0.566; R -0.836; P -0.568; F -0.65; S -0.815
R6: Q -0.19; W -0.809; K 0.11; P -0.91; T -0.375; G -0.486; E -0.212; M 0.142; V -0.211; A -0.279; S -0.319; H -0.036; C 0.107; L 0.056
V1: W -0.361; N 0.252; G -0.193; F -0.228; A -0.38; L 0.311; M 0.19; Q 0.235; R -0.291; S -0.048; D 0.022; E 0.043
G15: S 0.122; C 0.03; F -0.138; I -0.154; Y 0.139; W 0.087; E 0.281; R 0.074; L -0.162; N 0.05; A 0.153; P 0.003; H 0.25; K 0.135; V -0.016; D 0.217; M -0.079

Reference: the Human Domainome abundance scans (Beltran et al. 2025)
